According to US8242083B2, “Kinase substrates” (PerkinElmer Health Sciences, Inc., priority 2008, dated 2012):

Assays:
Format in all cases: biochemical
FLT3 = FLT3 (Homo sapiens, UniProt P36888); assay: TR-FRET kinase assay, FLT3; settings: Kinase Concentration 0.1 nM; 50 nM ULight-labeled substrate, 200 micromolar ATP, 2 hours
Method: (§1) TR-FRET kinase assays are performed under standardized conditions: various individual kinases are incubated with 50 nM of kinase substrate BRB1 labeled with the TR-FRET acceptor dye ULight (PerkinElmer) and 200 micromolar ATP in 10 μL of kinase assay buffer (50 mM HEPES pH7.5, 10 mM MgCl2, 3 mM MnCl2, 1 mM EGTA, 2 mM DTT and 0.01% Tween-20) for 2 hours at room temperature. Reactions are stopped with EDTA, and anti-phospho-tyrosine antibodies (clone PT66) labeled with the TR-FRET europium chelate donor dye are added to a final concentration of 2 nM in a final volume of 20 μL. The TR-FRET signal emitted at 665 nm is read one hour after the addition of antibodies using a TR-FRET plate reader such as the Envision® Multilabel Plate reader (PerkinElmer). The emitted signal at 665 nm is proportional to the extent of peptide phosphorylation, Control reactions indicative of background are performed excluding ATP from the reaction.
(§2) Assay conditions are identical to those used described for FIG. 1.

SRC = SRC (Homo sapiens, UniProt P12931); assay: TR-FRET kinase assay, SRC; settings: Kinase Concentration 0.5 nM; 50 nM ULight-labeled substrate, 200 micromolar ATP, 2 hours
Method: as §1, §2

TRKB (NTRK2) = TRKB (NTRK2) (Homo sapiens, UniProt Q16620); assay: TR-FRET kinase assay, TRKB (NTRK2); settings: Kinase Concentration 0.5 nM; 50 nM ULight-labeled substrate, 200 micromolar ATP, 2 hours
Method: as §1, §2

ABL [T315I] (ABL1) = ABL [T315I] (ABL1) (Homo sapiens, UniProt P00519, T315I); assay: TR-FRET kinase assay, ABL [T315I]; settings: Kinase Concentration 0.5 nM; 50 nM ULight-labeled substrate, 200 micromolar ATP, 2 hours
Method: as §1, §2

BTK = BTK (Homo sapiens, UniProt Q06187); assay: TR-FRET kinase assay, BTK; settings: Kinase Concentration 0.25 nM; 50 nM ULight-labeled substrate, 200 micromolar ATP, 2 hours
Method: as §1, §2

FLT4 = FLT4 (Homo sapiens, UniProt P35916); assay: TR-FRET kinase assay, FLT4; settings: Kinase Concentration 0.25 nM; 50 nM ULight-labeled substrate, 200 micromolar ATP, 2 hours
Method: as §1, §2

CSK = CSK (Homo sapiens, UniProt P41240); assay: TR-FRET kinase assay, CSK; settings: Kinase Concentration 20 nM; 50 nM ULight-labeled substrate, 200 micromolar ATP, 2 hours
Method: as §1, §2

KDR = KDR (Homo sapiens, UniProt P35968); assay: TR-FRET kinase assay, KDR; settings: Kinase Concentration 0.25 nM; 50 nM ULight-labeled substrate, 200 micromolar ATP, 2 hours
Method: as §1, §2

EphB3 = molecular target: T1, EphB3 (Homo sapiens, UniProt P54753); assay: TR-FRET kinase assay, EphB3; settings: Kinase Concentration 0.1 nM; 50 nM ULight-labeled substrate, 200 micromolar ATP, 2 hours
T1 sequence (P54753 34-998): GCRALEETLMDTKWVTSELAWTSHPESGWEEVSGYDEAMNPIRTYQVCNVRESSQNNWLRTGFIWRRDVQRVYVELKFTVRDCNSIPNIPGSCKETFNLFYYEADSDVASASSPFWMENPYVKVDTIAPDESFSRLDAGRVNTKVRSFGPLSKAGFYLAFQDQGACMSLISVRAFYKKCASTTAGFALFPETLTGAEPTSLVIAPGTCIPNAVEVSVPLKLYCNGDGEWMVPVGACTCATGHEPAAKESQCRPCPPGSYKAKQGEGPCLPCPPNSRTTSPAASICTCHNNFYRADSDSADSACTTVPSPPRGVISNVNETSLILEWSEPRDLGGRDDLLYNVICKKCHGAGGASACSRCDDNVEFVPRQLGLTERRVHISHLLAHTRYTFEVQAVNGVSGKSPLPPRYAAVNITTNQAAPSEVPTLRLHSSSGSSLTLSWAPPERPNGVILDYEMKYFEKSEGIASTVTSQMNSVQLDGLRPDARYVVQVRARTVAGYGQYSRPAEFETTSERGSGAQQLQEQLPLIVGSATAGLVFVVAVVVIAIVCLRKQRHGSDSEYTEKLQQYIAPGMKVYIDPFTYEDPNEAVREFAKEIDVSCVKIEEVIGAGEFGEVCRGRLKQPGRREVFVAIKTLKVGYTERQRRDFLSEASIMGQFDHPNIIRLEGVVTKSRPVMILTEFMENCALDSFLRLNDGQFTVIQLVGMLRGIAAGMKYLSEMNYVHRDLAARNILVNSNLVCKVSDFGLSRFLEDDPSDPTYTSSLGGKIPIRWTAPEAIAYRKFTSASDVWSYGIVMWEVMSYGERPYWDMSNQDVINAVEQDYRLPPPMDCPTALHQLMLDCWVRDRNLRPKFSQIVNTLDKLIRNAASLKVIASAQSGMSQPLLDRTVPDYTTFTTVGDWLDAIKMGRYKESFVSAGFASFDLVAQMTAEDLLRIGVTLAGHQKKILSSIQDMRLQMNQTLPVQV
Method: as §1, §2

SRM = SRM (Homo sapiens, UniProt Q9H3Y6); assay: TR-FRET kinase assay, SRM; settings: Kinase Concentration 0.5 nM; 50 nM ULight-labeled substrate, 200 micromolar ATP, 2 hours
Method: as §1, §2

RON = RON (Homo sapiens, UniProt Q04912); assay: TR-FRET kinase assay, RON; settings: Kinase Concentration 0.25 nM; 50 nM ULight-labeled substrate, 200 micromolar ATP, 2 hours
Method: as §1, §2

TYRO3 = molecular target: T2, TYRO3 (Homo sapiens, UniProt Q06418); assay: TR-FRET kinase assay, TYRO3; settings: Kinase Concentration 0.25 nM; 50 nM ULight-labeled substrate, 200 micromolar ATP, 2 hours
T2 sequence (Q06418 41-890): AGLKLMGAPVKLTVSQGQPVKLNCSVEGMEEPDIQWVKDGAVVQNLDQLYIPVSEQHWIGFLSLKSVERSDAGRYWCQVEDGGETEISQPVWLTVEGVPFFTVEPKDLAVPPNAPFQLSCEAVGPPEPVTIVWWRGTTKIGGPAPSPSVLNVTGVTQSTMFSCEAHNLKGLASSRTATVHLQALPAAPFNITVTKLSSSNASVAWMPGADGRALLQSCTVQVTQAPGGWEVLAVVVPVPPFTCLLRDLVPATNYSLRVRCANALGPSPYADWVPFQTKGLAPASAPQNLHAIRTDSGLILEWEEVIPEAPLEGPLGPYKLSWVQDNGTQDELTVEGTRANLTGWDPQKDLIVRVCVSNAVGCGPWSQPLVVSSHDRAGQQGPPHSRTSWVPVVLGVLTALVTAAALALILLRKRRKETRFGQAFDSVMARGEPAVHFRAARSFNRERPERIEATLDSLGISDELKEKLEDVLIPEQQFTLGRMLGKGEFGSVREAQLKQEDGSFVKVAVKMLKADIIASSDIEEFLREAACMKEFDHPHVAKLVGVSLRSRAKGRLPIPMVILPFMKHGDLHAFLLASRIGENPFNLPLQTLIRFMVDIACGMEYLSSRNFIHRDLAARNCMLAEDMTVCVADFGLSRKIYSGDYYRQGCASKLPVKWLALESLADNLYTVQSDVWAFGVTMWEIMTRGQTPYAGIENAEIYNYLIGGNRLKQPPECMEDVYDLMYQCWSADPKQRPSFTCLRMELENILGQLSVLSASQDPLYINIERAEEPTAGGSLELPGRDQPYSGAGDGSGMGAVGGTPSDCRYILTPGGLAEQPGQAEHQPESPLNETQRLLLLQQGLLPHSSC
Method: as §1, §2

Chain of BTK (Q06187 whole entry, species assumed): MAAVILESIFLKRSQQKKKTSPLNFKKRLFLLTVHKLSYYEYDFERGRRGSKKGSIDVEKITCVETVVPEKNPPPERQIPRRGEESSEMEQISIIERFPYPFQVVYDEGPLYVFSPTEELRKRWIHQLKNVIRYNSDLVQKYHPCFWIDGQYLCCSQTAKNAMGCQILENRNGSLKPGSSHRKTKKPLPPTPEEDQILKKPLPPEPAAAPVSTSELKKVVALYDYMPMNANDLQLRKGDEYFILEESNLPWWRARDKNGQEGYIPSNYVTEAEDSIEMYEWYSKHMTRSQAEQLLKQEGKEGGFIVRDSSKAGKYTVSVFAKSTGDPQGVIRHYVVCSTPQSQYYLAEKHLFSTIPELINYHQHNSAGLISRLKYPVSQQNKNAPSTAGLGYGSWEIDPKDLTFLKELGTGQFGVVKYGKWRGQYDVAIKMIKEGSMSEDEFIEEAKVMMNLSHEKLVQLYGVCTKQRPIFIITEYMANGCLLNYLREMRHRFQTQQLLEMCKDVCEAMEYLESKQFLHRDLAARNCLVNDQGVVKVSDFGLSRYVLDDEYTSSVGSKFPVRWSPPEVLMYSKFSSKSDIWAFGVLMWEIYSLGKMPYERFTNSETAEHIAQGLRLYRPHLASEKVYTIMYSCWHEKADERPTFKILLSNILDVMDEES
Chain of FLT4 (P35916 25-1363, species assumed): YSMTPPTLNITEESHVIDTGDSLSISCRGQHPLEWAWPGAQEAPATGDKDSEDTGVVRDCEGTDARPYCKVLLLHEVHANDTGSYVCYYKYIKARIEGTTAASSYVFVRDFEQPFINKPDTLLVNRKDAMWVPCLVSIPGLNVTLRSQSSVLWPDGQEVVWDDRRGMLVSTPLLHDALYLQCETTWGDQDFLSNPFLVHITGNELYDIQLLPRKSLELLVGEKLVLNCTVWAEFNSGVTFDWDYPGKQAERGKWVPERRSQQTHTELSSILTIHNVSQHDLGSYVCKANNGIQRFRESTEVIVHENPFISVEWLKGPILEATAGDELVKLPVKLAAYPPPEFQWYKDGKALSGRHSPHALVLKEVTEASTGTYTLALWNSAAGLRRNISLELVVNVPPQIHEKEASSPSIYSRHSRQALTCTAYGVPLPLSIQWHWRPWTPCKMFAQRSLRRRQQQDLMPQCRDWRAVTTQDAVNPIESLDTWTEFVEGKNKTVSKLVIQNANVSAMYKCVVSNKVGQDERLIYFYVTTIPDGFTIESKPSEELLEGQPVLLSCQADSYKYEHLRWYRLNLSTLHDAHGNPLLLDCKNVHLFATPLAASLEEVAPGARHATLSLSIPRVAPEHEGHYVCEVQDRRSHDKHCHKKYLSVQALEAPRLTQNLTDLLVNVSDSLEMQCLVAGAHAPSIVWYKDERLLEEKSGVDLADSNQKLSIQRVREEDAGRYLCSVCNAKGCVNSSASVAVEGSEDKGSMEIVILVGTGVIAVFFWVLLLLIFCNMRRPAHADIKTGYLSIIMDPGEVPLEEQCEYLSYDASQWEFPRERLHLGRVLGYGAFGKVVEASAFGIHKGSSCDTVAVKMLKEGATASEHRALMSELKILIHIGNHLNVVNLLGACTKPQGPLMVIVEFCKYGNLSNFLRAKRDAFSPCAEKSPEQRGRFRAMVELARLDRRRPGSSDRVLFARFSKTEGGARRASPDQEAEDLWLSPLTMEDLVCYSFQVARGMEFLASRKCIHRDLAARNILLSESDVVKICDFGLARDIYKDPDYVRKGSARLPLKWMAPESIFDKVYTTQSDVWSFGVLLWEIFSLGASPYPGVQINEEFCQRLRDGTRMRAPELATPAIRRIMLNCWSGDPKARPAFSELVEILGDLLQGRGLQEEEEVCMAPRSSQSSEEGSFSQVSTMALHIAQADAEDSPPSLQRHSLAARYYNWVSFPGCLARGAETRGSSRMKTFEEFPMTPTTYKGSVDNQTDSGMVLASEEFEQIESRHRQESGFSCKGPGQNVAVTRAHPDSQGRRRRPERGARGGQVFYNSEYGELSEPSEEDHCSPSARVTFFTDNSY
Chain of KDR (P35968 20-1356, species assumed): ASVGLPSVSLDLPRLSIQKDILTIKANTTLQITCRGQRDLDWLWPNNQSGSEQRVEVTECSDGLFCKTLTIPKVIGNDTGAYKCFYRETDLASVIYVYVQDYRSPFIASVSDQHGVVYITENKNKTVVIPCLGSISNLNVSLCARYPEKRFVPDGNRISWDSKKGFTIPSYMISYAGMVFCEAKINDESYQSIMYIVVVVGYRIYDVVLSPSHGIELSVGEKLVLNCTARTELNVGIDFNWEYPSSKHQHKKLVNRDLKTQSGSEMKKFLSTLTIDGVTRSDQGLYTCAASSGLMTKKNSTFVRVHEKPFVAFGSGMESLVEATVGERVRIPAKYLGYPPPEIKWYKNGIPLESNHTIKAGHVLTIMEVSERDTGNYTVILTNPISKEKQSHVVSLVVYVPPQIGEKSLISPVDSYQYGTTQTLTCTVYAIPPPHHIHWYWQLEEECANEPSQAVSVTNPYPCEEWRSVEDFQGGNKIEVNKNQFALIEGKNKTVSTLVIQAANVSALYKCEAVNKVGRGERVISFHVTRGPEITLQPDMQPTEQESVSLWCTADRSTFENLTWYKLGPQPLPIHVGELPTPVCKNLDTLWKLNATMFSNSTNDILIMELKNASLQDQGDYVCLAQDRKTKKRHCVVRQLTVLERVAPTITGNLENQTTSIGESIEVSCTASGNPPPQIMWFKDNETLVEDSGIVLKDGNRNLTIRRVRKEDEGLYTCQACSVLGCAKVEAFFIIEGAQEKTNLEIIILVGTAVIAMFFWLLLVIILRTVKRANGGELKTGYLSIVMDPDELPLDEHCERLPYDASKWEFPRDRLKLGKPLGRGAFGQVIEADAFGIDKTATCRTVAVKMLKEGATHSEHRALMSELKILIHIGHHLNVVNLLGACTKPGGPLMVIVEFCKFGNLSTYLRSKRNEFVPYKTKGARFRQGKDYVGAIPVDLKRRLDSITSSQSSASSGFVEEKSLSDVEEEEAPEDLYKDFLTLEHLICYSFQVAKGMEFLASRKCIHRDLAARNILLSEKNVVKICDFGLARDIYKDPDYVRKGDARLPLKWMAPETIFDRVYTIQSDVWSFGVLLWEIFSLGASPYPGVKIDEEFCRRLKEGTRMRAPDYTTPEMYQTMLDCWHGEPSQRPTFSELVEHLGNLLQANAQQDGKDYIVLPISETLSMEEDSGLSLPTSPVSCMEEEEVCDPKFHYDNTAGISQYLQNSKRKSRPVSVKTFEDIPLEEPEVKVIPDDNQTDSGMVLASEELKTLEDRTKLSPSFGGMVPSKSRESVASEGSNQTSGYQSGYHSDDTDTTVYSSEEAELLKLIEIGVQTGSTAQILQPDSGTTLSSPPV
Chain of CSK (P41240 whole entry, species assumed): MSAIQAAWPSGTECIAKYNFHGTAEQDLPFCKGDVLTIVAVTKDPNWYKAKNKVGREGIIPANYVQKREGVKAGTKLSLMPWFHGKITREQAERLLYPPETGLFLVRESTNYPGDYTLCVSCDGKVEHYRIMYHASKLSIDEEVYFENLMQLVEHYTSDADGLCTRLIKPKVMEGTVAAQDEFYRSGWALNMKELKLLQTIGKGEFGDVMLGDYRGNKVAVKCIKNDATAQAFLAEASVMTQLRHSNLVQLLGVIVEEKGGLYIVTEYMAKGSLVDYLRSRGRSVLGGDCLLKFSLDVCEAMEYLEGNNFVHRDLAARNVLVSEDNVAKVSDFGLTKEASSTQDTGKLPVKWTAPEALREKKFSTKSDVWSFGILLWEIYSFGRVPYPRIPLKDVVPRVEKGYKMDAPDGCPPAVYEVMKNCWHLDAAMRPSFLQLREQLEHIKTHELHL
Chain of SRM (Q9H3Y6 whole entry): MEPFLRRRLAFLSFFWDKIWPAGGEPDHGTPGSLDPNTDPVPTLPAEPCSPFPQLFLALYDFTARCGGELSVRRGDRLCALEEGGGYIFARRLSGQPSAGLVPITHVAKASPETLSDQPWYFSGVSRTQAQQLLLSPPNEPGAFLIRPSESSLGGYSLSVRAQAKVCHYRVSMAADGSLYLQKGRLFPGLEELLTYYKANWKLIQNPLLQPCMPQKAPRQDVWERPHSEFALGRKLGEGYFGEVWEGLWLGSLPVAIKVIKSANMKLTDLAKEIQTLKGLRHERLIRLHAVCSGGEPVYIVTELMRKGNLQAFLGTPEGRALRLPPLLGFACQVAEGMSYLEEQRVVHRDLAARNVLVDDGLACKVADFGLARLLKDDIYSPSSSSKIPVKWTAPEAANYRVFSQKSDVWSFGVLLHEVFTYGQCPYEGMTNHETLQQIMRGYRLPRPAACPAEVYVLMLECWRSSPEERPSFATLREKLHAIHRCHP

C AYE AYE AYE K EYA EYA EYA K AYA EYE R (CAYEAYEAYEKEYAEYAEYAKAYAEYER; tyrosine kinase substrate peptide) [BRB1]
Signal to Noise ratio with BRB1 Peptide (FLT3): 25.9
Signal to Noise ratio with BRB1 Peptide (SRC): 31.7
Signal to Noise ratio with BRB1 Peptide (TRKB (NTRK2)): 28.0
Signal to Noise ratio with BRB1 Peptide (ABL [T315I] (ABL1)): 4.8
Signal to Noise ratio with BRB1 Peptide (BTK): 6.8
Signal to Noise ratio with BRB1 Peptide (FLT4): 20.0
Signal to Noise ratio with BRB1 Peptide (CSK): 27.2
Signal to Noise ratio with BRB1 Peptide (KDR): 16.9
Signal to Noise ratio with BRB1 Peptide (EphB3): 24.7
Signal to Noise ratio with BRB1 Peptide (SRM): 32.5
Signal to Noise ratio with BRB1 Peptide (RON): 3.5
Signal to Noise ratio with BRB1 Peptide (TYRO3): 6.1
